Laboratory results taken from the domain aggregation screens of Martell et al. (2025).

Assay: soluble fraction after stress (log2 fold change); higher = more stays soluble; pooled small domains, quantitative proteomics
Conditions: stress: 75 degC
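Note: 20 min heating vs room temperature control held 20 min.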

“HMYEDGGAFLKAEREKYGLTLTDIYEHTHIPVRKLKAYEMHEEEMPDRTRALLELYFDQVAYEYES” and “HMYEDIDSAYRILEINSTVSNQEIKNAYRRMAKKYHPDKVAHLGVEHQKGAEEKFKKVQEAYILIKKRRG” are within 0.2 log units of each other in “soluble fraction (log2)” value: -0.734 for the first, -0.918 for the second.

Compared with “HMYEENFSKIKNDISTIFKRHKISFTNNFISHLSSVFNTDSLTNKMELEKLDSFLINNKKVTENELLKFII”, “HMYEINEIIRERRLKKGLTQAQVAKYLGVSAPAVNKWEKGTTYPDLVLLPALARLLDTDLTTLLSF” is lower in “soluble fraction (log2)” value: -0.0789 for the first, -1.46 for the second.

Going from “HMYEVVPNMRGLTYNQATAALAAAGLKVELSDSIYDEHTQPGTVLDQSPRPNTKVKPNRVVYLTVNAF” to “HMYFDDEELDTYKGRASNAYSPDETAQFEEVMTTMRPDEVAAWLRSLQLRGINLPDELKDEAIMLVE”, the “soluble fraction (log2)” value rises from -1.1 to -0.0968.

“HMYFGNSLFQARKRSGLSQEGVAEKLGVSRQTVSKWETGETVPDIYQSKKMARLYGVSLDEL” and “HMYFNTADLKADSIHYGSTEQSVIKILGEPEYRETFVDNNVSYELFSYKGNLLLSFVENSLVSL” are within 0.2 log units of each other in “soluble fraction (log2)” value: 0.206 for the first, 0.147 for the second.

First: HMYGTERILAQLANYGIPNKLAFQIQDFYKEETLQIVEQQPYRLVEDIQGMGFKIADQLAEELGI
Second: HMYIDLHEIWKSLTDEEQTVVKLLETEPAHVDTLIENSQIPASRILATLTLLEVRGIVKRLPGRMFSLAD
The “soluble fraction (log2)” value of the first is higher: -0.307 for the first, -3.61 for the second.

Going from “HMYIENIGDYLKSHDIKPSYQRIKVFEYLMQHKNHPTVDMIYKSLVDEIPTLSKTTVYNTLNLFIEKQI” to “HMYITGAVIRKLREKNNITQLQLAERLRVSDKTISKWETGKGYPDITLLEPIAKTFSVSVTELISGDI”, the “soluble fraction (log2)” value falls from -1.55 to -2.46.

Compared with “HMYKNLRAFRESLGMTQKDFAASLSIGLSTYNGYEVGAREPKSDFWIAVARKYGVTIDYLMGFSDDPHK”, “HMYKSSRASKSEVNKFLKFIIQSLDKRGFLQPGHKRQSMIRNIENIFYRTNLSDQEIRILLGIFSTLNK” is higher in “soluble fraction (log2)” value: -1.46 for the first, -0.9 for the second.

First: HMYLELVTKEGGSFDEPDYWGRRKLAYEIAGKTEGNYVVVKYTAEPATSDELDRVLNLNESVIRTKILRK
Second: HMYLHSEFSPVTGQELHMKYDDSSTEEDPVMLVEGKDIQGNDFVKKIHLNDVDPENATPAEMTALRVHL
The “soluble fraction (log2)” value of the first is lower: 0.00439 for the first, 0.206 for the second.

Compared with “HMYLLPVTSTELKGNYPNPFNPETTISFDLKDAERVNLSIYNLKGQLVRTLVNSDLPIGRHRLIWDGNDS”, “HMYLPGERMRIKITALGSNPKQGVGYLPDGMMVVVDEAATLVGRFVEIEFVKFLQTNSGRMMFAKVAT” is lower in “soluble fraction (log2)” value: -0.622 for the first, -1.96 for the second.

Compared with “HMYMKGKVKWFDSKKGYGFITSENGKEIFVHFSGIAAKGFKSLNEGQTVEFEVANGAKGEQAVNVTV”, “HMYMKTITEQFGERLKKIRTQKSLSQEQLSYLADIDRSYISDVERGARNISLENIYKLASALNIPPYLVLL” is higher in “soluble fraction (log2)” value: -1.23 for the first, -0.341 for the second.

Going from “HMYMLYQQLADSLRDKIYEGTYTFGDKIPSERTLAATFGISHLTVRKALAILEEEGLLDRRQGNGTFVRV” to “HMYNIDSFMTKNYPTMERFTLSDVQKKYKTTFGLFVKQDELASMIEKTGRFNITSSKNVKYVNR”, the “soluble fraction (log2)” value falls from -1.09 to -1.88.

Going from “HMYNPAYDAEIKVILELARHGYWEEARERADELLKAAPDDTGVKRIQTWVRQQEQRMREQAIEDSIRA” to “HMYPEETVNKILDVSMQLFLEKGYEHTSIQDIVNHLGGLSKGAIYHHFKSKEDILDGVMNKLYQNN”, the “soluble fraction (log2)” value falls from -0.288 to -1.58.

“HMYPGQILEIYLDEIKRLYLNGLSSADIFAEIKEGSIPSVKKAIRSMKDGSAPVKITEAEESTRIAPS” and “HMYPTPAAANRHFLDKWGHQEAYLGKVLNSRSRASEILNGKRPLSLSDLRTLRDNLGIPVDLLL” are within 0.2 log units of each other in “soluble fraction (log2)” value: -0.543 for the first, -0.648 for the second.

Going from “HMYQKERDKEISEIETFLKKITNANGTRAYSDESIADMSYVELLNLYEGITSKLTEEEIENI” to “HMYQPLYEQIKRMLTQSLIDGEWKAGEMIPSEMELAARFKVSQGTVRKAIDELVSENILMRRQGKGTFVH”, the “soluble fraction (log2)” value falls from 0.0659 to -0.962.

First: HMYSDDNKSILNLIDNLFNKENIKIDINAKKLLSNYLGVDRLVTKGEIEKAILFAGTKKHLSIEDISAFLS
Second: HMYSFPHQLLKLRTEKQLSQAELATRLFVSRQAVSKWENGDAEPSIDKLILLAKVFNVSLDRLILGT
The “soluble fraction (log2)” value of the first is higher: -0.104 for the first, -4.31 for the second.

“HMYSIDNPPDWLKNLPKGAIRIGVEVFNQVLSKADDEDRARMAAWSAIKAKYEKADDGQWQPKAA” and “HMYSNDEIVNYLKNYIFDNFNLNELSDEELEEKIAELVQQQFAGQLLSLDEKVKLVNQVYSSIR” are within 0.2 log units of each other in “soluble fraction (log2)” value: 0.0816 for the first, -0.0578 for the second.

Compared with “HMYSRQRDLILKALRENVVHPTADFIYTVLKEKEPNLSLATVYRNLNLLANEGIIRKIEGLDGVAHFDH”, “HMYSVVGKKGIVIEDINYSTGTGQIKSEGEVWSAKTNEQINIPKGTEIEIESIDGVKVIVKPL” is higher in “soluble fraction (log2)” value: -1.85 for the first, 0.109 for the second.

First: HMYTDGVPALTDLKKESKPGRRQYVGVEDIPKVLGGLGITILSTSKGLMSGHQAKKKNIGGELIASV
Second: HMYTEIDDVKDLLSKIPSVNKLTTADRGMVQAARNAYDALDEDQKLYITIADVEKFNAAVEWMEEH
The “soluble fraction (log2)” value of the first is higher: 0.102 for the first, -0.186 for the second.

First: HMYTVRDGDTVFGILNRFGVSLDELLSLNPELSNGLKAGMVLKIK
Second: HMYVADVVGMGIKDALYILENQGLRVVFTGKGVVKNQSIAVGEKIIKGEKIVLML
The “soluble fraction (log2)” value of the first is higher: -0.542 for the first, -1.88 for the second.

Compared with “HMYVQDPVDRLVLESALRLLREQEREIIFLHLVAGLKHREIAGLLHLPLSTVLSGYRRALTKMKSYLEE”, “HMYVTGETIRHLRTQRRMTQEQLAETLGVTGKAVSKWETGRGFPDMSLLEPLARALRISVPELLSGE” is lower in “soluble fraction (log2)” value: -0.0135 for the first, -1.07 for the second.

Going from “HMYYNQGILKSGASVYGEPGITSSHRLEIPSGSFVDIVQEKDEWVYYEKNHVNHGWVLRENIYIPSL” to “HMYYQEDHDIILEETEDVTDPYLITLRGYIFLNNLQWVAARQAFLSADERFRHRHYSALIAPIMQTIDNAA”, the “soluble fraction (log2)” value rises from 0.149 to 0.359.

With “HMYYSERILTILEERGISPYRVSKETGISQSVFSNWKRKPTSRITAANLERLADYLGLPVEVLTG” the “soluble fraction (log2)” value was -3.48.
